Measured values taken from patent US7097990B2, “Method of screening cell death inhibitor” (Astellas Pharma Inc., priority 2001, dated 2006).

Biological target: PARP (Cricetulus griseus, UniProt Q9R152)
Test: PARP inhibition in transfected CHO dhfr- cells, 3H-NAD incorporation
Conditions: H2O2 0.06%; cells co-expressing LTRPC2 and PARP-1 dominant negative mutant versus LTRPC2 alone

Sequence of PARP (Q9R152 2-1013): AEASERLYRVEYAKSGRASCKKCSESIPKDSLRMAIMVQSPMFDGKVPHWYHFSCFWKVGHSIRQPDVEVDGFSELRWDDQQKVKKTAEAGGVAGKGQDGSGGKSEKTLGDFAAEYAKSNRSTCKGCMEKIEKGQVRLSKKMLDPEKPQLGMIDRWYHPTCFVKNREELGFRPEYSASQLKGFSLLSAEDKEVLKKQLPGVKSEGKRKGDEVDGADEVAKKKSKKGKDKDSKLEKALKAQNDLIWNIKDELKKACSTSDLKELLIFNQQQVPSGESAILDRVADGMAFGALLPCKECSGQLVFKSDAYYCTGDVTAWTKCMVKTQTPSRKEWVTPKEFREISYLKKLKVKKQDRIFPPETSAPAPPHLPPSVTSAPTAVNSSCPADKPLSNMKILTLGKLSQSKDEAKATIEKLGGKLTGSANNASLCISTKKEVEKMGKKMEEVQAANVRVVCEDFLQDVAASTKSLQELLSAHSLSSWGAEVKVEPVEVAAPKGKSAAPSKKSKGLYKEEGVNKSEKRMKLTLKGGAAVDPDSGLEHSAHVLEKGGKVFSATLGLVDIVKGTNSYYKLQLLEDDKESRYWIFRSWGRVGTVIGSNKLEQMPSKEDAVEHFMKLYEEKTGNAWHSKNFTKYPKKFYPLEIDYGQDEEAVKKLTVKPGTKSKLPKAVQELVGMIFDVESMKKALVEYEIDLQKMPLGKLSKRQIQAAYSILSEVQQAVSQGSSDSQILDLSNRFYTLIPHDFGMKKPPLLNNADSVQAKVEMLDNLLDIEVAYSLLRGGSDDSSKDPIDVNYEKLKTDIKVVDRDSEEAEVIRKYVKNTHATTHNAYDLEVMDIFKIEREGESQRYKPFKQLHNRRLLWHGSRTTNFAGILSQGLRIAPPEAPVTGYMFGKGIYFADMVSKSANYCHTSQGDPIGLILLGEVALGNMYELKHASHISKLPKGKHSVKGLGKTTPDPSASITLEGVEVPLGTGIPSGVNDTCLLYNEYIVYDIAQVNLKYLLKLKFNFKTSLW

Substance: PARP-1 dominant negative mutant: human PARP-1 DNA binding region (positions 1 to 374), amino acid sequence SEQ ID NO:20, co-expressed in cells
- 3H radioactivity in comparison with the control cells: 67%
